Test results taken from article PMC10803253, “Structural insights into the iron nitrogenase complex” (Nature Structural & Molecular Biology, 2023).

B1: AnfG, G subunit of the Fe nitrogenase catalytic component (Rhodobacter capsulatus) (natural protein, UniProt Q07934 1-115, looked up)
chain: MTDISEKLDPLVDYIMKNCLWQFNSRGWDRLKQNAGILSQTCEILCGEEPVHETAMDRCYWVDAVILSRAYKARFPWLMAMTKPEIKSLFKALHEKIDHLTVHGSLNTELTVPHY
notes: AnfG, delta (G) subunit of the Fe-only nitrogenase, Rhodobacter capsulatus B10S; the anfHDGK operon was amplified whole from genomic DNA; Single subunit, written for the subunit-to-subunit rows of the complexes solved here
B2: AnfK, K subunit of the Fe nitrogenase catalytic component (Rhodobacter capsulatus) (natural protein, UniProt Q07935 1-460, looked up)
chain: MTCQVTQKAREGTINPIFTCQPAGAQFASIGIKDCIGIVHGGQGCVMFVRLLISQHMKESFEIASSSVHEDGAVFGALDRVETAVEVLLTRYPDVKVVPIITTCSTEIIGDDVDGLLSKLEDELLPTKFPGREVHLLTVHCPSFVGSMITGYDKAVHDFVKKFATKDEPSDKINLITGWVNPGDVKELKHLLEVMEVKANVLFEVESFDSPLMPDLEHHSHGSTTIEDLRDTANAKGTIALNRYEGMKAADYLKKKFKVPAVIGPTPVGIRNTDAFLKAVSEMTGQPIPAQLVKERGLALDAIADIGHMFLADKRVAIYANPDLAIGLTEFCLDLEMKPKLLLLGDDNSGYVKDPRVVALQENAPDLEIVTNADFWDLESRIQQGLELDLILGHSKGRFISIDYKVPMVRVGFPTYDRAGMYRHPVLGYGGAMFLAETMANTLFADMEAKKNKEWILNVW
notes: AnfK, beta (K) subunit of the Fe-only nitrogenase, Rhodobacter capsulatus B10S; the anfHDGK operon was amplified whole from genomic DNA; Single subunit, written for the subunit-to-subunit rows of the complexes solved here
B3: Fe nitrogenase reductase component AnfH2 (Rhodobacter capsulatus) (enzyme, UniProt Q07942 1-275, looked up)
chain: MTRKIAIYGKGGIGKSTTTQNTAAALAFFHEKNVFIHGCDPKADSTRLILGGLPQQTVMDTLRIEGAERVTVDKVVKTGFKDIRCVESGGPEPGVGCAGRGVITAIDLMEENEAYSEDLDFLFFDVLGDVVCGGFAMPIRDGKAEEVYIVASGEMMAIYAANNICKGLAKYARQSGVRLGGIICNSRNVDGEKEFLEEFTKAIGTKMIHFVPRDNIVQKAEFNKQTVTEFQPEANQAQEYRELGRKIIENEDFVIPKPLAMDELEAMVVKYGLMD
notes: AnfH, nitrogenase iron protein of the Fe-only nitrogenase, Rhodobacter capsulatus B10S; the anfHDGK operon was amplified whole from genomic DNA; Homodimer with one [Fe4S4] cluster between the two chains; in the trapped complex one MgADP·AlF3 per chain; His6-tag inserted without any linker; no cleavage step is described; also called H subunit

Experiments:
[1] = biological target: T1, AnfD, D subunit of the Fe nitrogenase catalytic component (Rhodobacter capsulatus) (Rhodobacter capsulatus, UniProt Q07933 1-526); experiment: mass photometry; individual nitrogenase components; 500 nM stock diluted 0.5 µl into 19.5 µl of 150 mM NaCl, 50 mM Tris pH 7.8, 10% glycerol, 10 mM dithionite; conditions: both partners purified
T1 construct: AnfD, alpha (D) subunit of the Fe-only nitrogenase, Rhodobacter capsulatus B10S; the anfHDGK operon was amplified whole from genomic DNA; Single subunit, written for the subunit-to-subunit rows of the complexes solved here

[2] = biological target: B3; experiment: cryo-EM structure; ADP·AlF3-stabilized Anf(DGK)2(H2)2 complex after SEC, 1 mg/ml, anaerobic plunge freezing, no detergent; 2.35 Å, C2 symmetry; conditions: both partners purified
[3] = biological target: T1, AnfD, D subunit of the Fe nitrogenase …; experiment: cryo-EM structure; catalytic component Anf(DGK)2 alone with CHAPSO (0.4% m/V) added on the grid right before plunge freezing; 2.49 Å, C2 symmetry; conditions: both partners purified
[4] = biological target: the molecule itself; experiment: mass photometry; individual nitrogenase components; 500 nM stock diluted 0.5 µl into 19.5 µl of 150 mM NaCl, 50 mM Tris pH 7.8, 10% glycerol, 10 mM dithionite
[5] = biological target: T2, Fe nitrogenase catalytic component Anf(DGK)2 (Rhodobacter capsulatus) (Rhodobacter capsulatus, UniProt Q07933 1-526; Q07934 1-115; Q07935 1-460); experiment: SEC; 4 nmol catalytic and 32 nmol reductase component, 1 h at 30 °C in 100 mM MOPS, 50 mM Tris, 100 mM NaCl pH 7.3, 5 mM dithionite, 4 mM NaF, 0.2 mM AlCl3, 8 mM MgCl2, 1 mM ATP (ADP·AlF3 trap); SEC in 50 mM Tris pH 7.8, 200 mM NaCl, 5 mM dithionite; anaerobic; conditions: both partners purified
T2 construct: AnfD, alpha (D) subunit of the Fe-only nitrogenase, Rhodobacter capsulatus B10S; the anfHDGK operon was amplified whole from genomic DNA; AnfG, delta (G) subunit of the Fe-only nitrogenase, Rhodobacter capsulatus B10S; AnfK, beta (K) subunit of the Fe-only nitrogenase, Rhodobacter capsulatus B10S; Heterohexamer with two P-clusters [Fe8S7] and two FeFeco [Fe8S9C-(R)-homocitrate]; Strep-tag II …

Binder: B1
binding result [1]: binds | binding result [2]: binds

Binder: B2
binding result [3]: binds

Binder: B3
stoichiometry N [4]: 2 subunits in the oligomer | stoichiometry N [5]: 2 AnfH2 per Anf(DGK)2
